These results are taken from US20250179138.

The data set relates to ACP11 (human p40/murine p35 IL-12 fusion protein).

active MMP9 (Sigma catalog #SAE0078-50 or Enzo catalog BML-SE360), sequence (chain, as listed by the source): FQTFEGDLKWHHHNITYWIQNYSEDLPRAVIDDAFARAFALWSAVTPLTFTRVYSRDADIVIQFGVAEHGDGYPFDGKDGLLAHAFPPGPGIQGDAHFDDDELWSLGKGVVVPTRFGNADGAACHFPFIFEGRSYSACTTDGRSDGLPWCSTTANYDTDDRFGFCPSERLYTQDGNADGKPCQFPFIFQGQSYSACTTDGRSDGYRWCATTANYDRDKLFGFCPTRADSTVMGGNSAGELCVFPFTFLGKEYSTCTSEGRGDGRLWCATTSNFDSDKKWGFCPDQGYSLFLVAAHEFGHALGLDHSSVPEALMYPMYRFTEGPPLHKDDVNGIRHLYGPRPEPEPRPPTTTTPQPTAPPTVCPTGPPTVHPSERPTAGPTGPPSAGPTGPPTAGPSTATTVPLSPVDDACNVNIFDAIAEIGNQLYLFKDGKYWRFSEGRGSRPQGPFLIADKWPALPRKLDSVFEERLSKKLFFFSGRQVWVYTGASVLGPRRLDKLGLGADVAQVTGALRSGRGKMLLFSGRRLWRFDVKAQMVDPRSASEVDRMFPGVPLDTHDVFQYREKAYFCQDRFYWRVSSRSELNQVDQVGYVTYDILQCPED

For “active MMP9 (Sigma catalog #SAE0078-50 or Enzo catalog BML-SE360)”, the “protein cleavage assay, extent of cleavage monitored by SDS PAGE” value is listed as “the ACP11 fusion protein was cleaved by MMP9 protease”.
